Measured values from article PMC10873366, “DNA binding redistributes activation domain ensemble and accessibility in pioneer factor Sox2”.

What was measured:
[1] = target: T1, Sox2 DBD, isolated, unlabelled (UniProt P48431 37-120); assay: smFRET titration; 200 mM salt (table; text gives 165 mM KCl); smFRET: 165 mM KCl or 200 mM salt (Supplementary Table 4), buffer details not in material; NMR: 20 mM NaH2PO4, 50 mM NaCl, 5 mM DTT, pH 5.5, 15 C; settings: protein: recombinant; tags: His6-SUMO removed by ULP1; label: Cy3B and CF660R, one on each 5' end; blunt
T1 sequence (P48431 37-120): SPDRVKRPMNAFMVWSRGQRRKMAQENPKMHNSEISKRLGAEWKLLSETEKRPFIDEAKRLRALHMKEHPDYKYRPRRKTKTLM

[2] = target: T2, Sox2 full-length, unlabelled (UniProt P48431 1-317); assay: as above; settings: protein: recombinant; tags: His6-SUMO removed by ULP1; label: Cy3B and CF660R, one on each 5' end; blunt
T2 sequence (P48431 whole entry): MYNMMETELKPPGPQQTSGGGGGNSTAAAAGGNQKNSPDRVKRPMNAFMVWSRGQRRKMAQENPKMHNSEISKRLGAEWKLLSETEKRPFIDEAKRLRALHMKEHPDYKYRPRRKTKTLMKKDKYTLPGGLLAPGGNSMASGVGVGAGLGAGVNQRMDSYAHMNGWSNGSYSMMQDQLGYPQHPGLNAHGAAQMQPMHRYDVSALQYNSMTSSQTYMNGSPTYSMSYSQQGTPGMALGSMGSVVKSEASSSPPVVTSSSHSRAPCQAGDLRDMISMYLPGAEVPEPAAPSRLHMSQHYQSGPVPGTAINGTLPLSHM

[3] = target: Sox2 DBD labelled at 37 and 120 (UniProt P48431 37-120, S37C;M120C); assay: smFRET titration; 200 mM salt; labelled protein; smFRET: 165 mM KCl or 200 mM salt (Supplementary Table 4), buffer details not in material; NMR: 20 mM NaH2PO4, 50 mM NaCl, 5 mM DTT, pH 5.5, 15 C; settings: protein: recombinant; tags: His6-SUMO removed by ULP1; blunt
Chain of Sox2 DBD labelled at 37 and 120 (P48431 37-120 S37C/M120C): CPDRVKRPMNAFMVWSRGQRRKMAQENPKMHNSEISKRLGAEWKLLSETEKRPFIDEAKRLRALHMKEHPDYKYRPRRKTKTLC

[4] = target: T1, Sox2 DBD, isolated, unlabelled; assay: smFRET titration; 200 mM salt; smFRET: 165 mM KCl or 200 mM salt (Supplementary Table 4), buffer details not in material; NMR: 20 mM NaH2PO4, 50 mM NaCl, 5 mM DTT, pH 5.5, 15 C; settings: protein: recombinant; tags: His6-SUMO removed by ULP1; label: Cy3B and CF660R, one on each 5' end; blunt
[5] = target: T2, Sox2 full-length, unlabelled; assay: as above; settings: protein: recombinant; tags: His6-SUMO removed by ULP1; label: Cy3B and CF660R, one on each 5' end; blunt
[6] = target: Sox2 full-length labelled in the C-IDR (UniProt P48431 1-317, M120C;S315C); assay: smFRET (C-IDR expands, E 0.43 to 0.28); smFRET: 165 mM KCl or 200 mM salt (Supplementary Table 4), buffer details not in material; NMR: 20 mM NaH2PO4, 50 mM NaCl, 5 mM DTT, pH 5.5, 15 C; settings: protein: recombinant; tags: His6-SUMO removed by ULP1; blunt
Chain of Sox2 full-length labelled in the C-IDR (P48431 whole entry M120C/S315C): as the sequence (P48431 whole entry) above, with M120C, S315C counted along it

[7] = target: T2, Sox2 full-length, unlabelled; assay: NMR (1H15N HSQC CSP); 30 uM Sox2, 1.1-fold DNA, 50 mM NaCl, pH 5.5, 15 C; smFRET: 165 mM KCl or 200 mM salt (Supplementary Table 4), buffer details not in material; NMR: 20 mM NaH2PO4, 50 mM NaCl, 5 mM DTT, pH 5.5, 15 C; settings: protein: recombinant; tags: His6-SUMO removed by ULP1; blunt

B1: 15 bp specific DNA, labelled (dsDNA)
DNA 1: ACTCTTTGTTTGGAT
DNA 2: ATCCAAACAAAGAGT
modifications: 5' C6-amino linker on both strands
Kd [1]: 0.3 ± 0.1 nM | Kd [2]: 0.4 ± 0.2 nM

B2: 30 bp specific DNA (dsDNA)
DNA 1: ATCCCATTAGCATCCAAACAAAGAGTTTTC
DNA 2: GAAAACTCTTTGTTTGGATGCTAATGGGAT
Kd [3]: 0.3 ± 0.2 nM

B3: 15 bp nonspecific DNA, labelled (dsDNA)
DNA 1: TCTATCTGTGTATGT
DNA 2: ACATACACAGATAGA
modifications: 5' C6-amino linker on both strands
Kd [4]: 11 ± 4 nM | Kd [5]: 6 ± 2 nM

B4: 15 bp specific DNA, unlabelled (dsDNA)
DNA 1: ACTCTTTGTTTGGAT
DNA 2: ATCCAAACAAAGAGT
binding result [6]: binds | binding result [7]: binds
